Starred links: 1 amine or outer side, 2 acyl side, 3 side chain; linkers in the order of their positions; H or OH if unused. Non-standard residues stand in square brackets, D forms with d. *: point of attachment. X4 = ((1S)-1-Carboxy-3-methylbutyl)carbamoyl, CC(C)C[C@H](NC(=O)*)C(=O)O; Ala(piperidin-4-yl) = O=C([C@H](CC1CCN([*:3])CC1)N[*:1])[*:2]; X5 = tetrahydro‑2H‑pyran‑4‑yl‑carbamoyl, O=C(NC1CCOCC1)*; Imidazole4carbonyl = O=C(c1cnc[nH]1)*; hArg = N=C(N)NCCCC[C@H](N)C(=O)O; tBuAla = CC(C)(C)C[C@H](N)C(=O)O; αMeF = C[C@](N)(Cc1ccccc1)C(=O)O; 4Pal = N[C@@H](Cc1ccncc1)C(=O)O; dHyp = O=C(O)[C@H]1C[C@H](O)CN1; Cha = N[C@@H](CC1CCCCC1)C(=O)O; Isonicotinoyl = O=C(c1ccncc1)*; dIva = CC[C@@](C)(N)C(=O)O; Iva = CC[C@](C)(N)C(=O)O; Aib = CC(C)(N)C(=O)O
Key:
human Y2 receptor [1] = biological target: T1, human Y2 receptor (Homo sapiens, UniProt P49146); assay: Receptor Binding Assay (RBA) for Human Y2, [125I]-PYY displacement on hY2R/CHO membrane fraction; conditions: IC50 of test compound/IC50 of PYY(3-36) (PYY(3-36) taken as 1)
T1 construct: expressed in transfected cells; membrane fraction
T1 sequence (P49146 1-381): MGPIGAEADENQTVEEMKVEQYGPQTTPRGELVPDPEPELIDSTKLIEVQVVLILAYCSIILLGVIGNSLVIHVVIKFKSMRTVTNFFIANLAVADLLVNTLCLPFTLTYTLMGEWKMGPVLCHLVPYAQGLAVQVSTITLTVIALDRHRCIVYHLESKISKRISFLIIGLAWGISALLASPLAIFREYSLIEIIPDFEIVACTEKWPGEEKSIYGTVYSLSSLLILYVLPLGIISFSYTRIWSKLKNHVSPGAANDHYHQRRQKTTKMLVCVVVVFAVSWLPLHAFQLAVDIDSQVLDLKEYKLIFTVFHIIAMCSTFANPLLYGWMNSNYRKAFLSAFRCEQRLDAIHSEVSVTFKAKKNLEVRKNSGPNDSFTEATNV
In short: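 Read-out is [125I]-PYY displacement from membranes of CHO/dhfr− cells stably transfected with human Y2R. Membranes were obtained by disrupting cells in a buffer of 10 mM NaHCO3, 5 mM EDTA and protease inhibitors.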

human Y2 receptor [2] = biological target: T1, human Y2 receptor; assay: Human Y2 Receptor G Protein Binding Assay (GBA), [35S]GTPγS; assay type: biochemical; conditions: EC50 of test compound/EC50 of PYY(3-36) (PYY3-36 taken as 1), hY2R/CHO membrane fraction
In short: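 Agonism measured as [35S]GTPγS binding, read by GF/C filtration and scintillation counting after 120 min at room temperature, using human Y2 membranes at 1 μg protein/mL in pH 7.4 Tris/MgCl2/NaCl/GDP buffer. Compound serially diluted 100 μM–1 nM; EC50 normalized to PYY(3-36) (ratio = compound/PYY).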

male C57EL/6J mice = assay: 3-Days Continuous Subcutaneous Administration Test-1 (food intake suppressing activity); assay type: in vivo, mouse; conditions: 0.03 mg/kg/day, subcutaneous Alzet pump, food consumption over 3 days; relative to food intake suppression rate for PYY(3-36) (1 mg/kg/day) taken as 100%
Protocol: (4) Test Method: 3-Days Continuous Subcutaneous Administration Test-1
The food intake suppressing activity of the compound of the present invention was examined by the method described below.
The test compound was dissolved in 50% DMSO so that sustained release would occur at 0.03 mg/kg/day, and the solution was filled in the Alzet Pump (Alzet model: 1003D, sustained release rate: 1 μL/hr, capacity: 100 μL). After the filling, the pump was placed in a 2 mL Eppendorf tube containing 330 μL of physiological saline, and incubated at 37° C. for 2 hours or more. Thereafter, this pump was subcutaneously embedded in the back of each mouse by the method described below. After weighing, each male […] mice at 12-13 weeks of age (25° C., allowed to take food and water ad libitum; 12-hour bright-12-hour dark cycle, lighting turned on at 08:00) was anesthetized with diethyl ether; the skin in the upper back thereof was incised, and the above-mentioned pump was embedded subcutaneously. Thereafter, several drops of penicillin solution (100000 units/mL) were added to the incised part, and the incision was sutured using Michel's surgical needle. This mouse was returned to the rearing cage (reared alone), and given previously weighed food; 3 days later, the amount of remaining food was measured. Food consumption was calculated by subtracting the amount of remaining food after 3 days from the weight of the food given on the day of pump embedding. The food intake suppressing activity of each test compound was expressed as a food intake suppression rate (%) relative to the food intake suppression rate for PYY(3-36) (1 mg/kg/day) taken as 100%.

Substance | RBA IC50 Ratio (human Y2 receptor [1]) | GBA EC50 Ratio (human Y2 receptor [2]) | food intake suppression rate (%) (male C57EL/6J mice)
Ac-[D-Hyp24, Iva25, Pya(4)26, Cha27,36, Aib28,31, Lys30]-PYY(23-36) (Ac-S[dHyp][Iva][4Pal][Cha][Aib]NK[Aib]TRQR[Cha]-NH2; SMILES CC[C@](C)(NC(=O)[C@H]1C[C@H](O)CN1C(=O)[C@H](CO)NC(C)=O)C(=O)N[C@@H](Cc1ccncc1)C(=O)N[C@@H](CC1CCCCC1)C(=O)NC(C)(C)C(=O)N[C@@H](CC(N)=O)C(=O)N[C@@H](CCCCN)C(=O)NC(C)(C)C(=O)N[C@H](C(=O)N[C@@H](CCCNC(=N)N)C(=O)N[C@@H](CCC(N)=O)C(=O)N[C@@H](CCCNC(=N)N)C(=O)N[C@@H](CC1CCCCC1)C(N)=O)[C@@H](C)O) [compound No. 297] | 1.5 | 1.4 | 45%
[(1S)-1-Carboxy-3-methylbutyl]carbamoyl-[Gln23, D-Pro24, Pya(4)26, Cha27,36, Aib28,31, Lys30]-PYY(23-36) (X4-Q[dP]R[4Pal][Cha][Aib]NK[Aib]TRQR[Cha]-NH2; SMILES CC(C)C[C@H](NC(=O)N[C@@H](CCC(N)=O)C(=O)N1CCC[C@@H]1C(=O)N[C@@H](CCCNC(=N)N)C(=O)N[C@@H](Cc1ccncc1)C(=O)N[C@@H](CC1CCCCC1)C(=O)NC(C)(C)C(=O)N[C@@H](CC(N)=O)C(=O)N[C@@H](CCCCN)C(=O)NC(C)(C)C(=O)N[C@H](C(=O)N[C@@H](CCCNC(=N)N)C(=O)N[C@@H](CCC(N)=O)C(=O)N[C@@H](CCCNC(=N)N)C(=O)N[C@@H](CC1CCCCC1)C(N)=O)[C@@H](C)O)C(=O)O) [compound No. 284] | 0.93 | 1.3 | 21%
4-Pyridinecarbonyl-[D-Hyp24, Iva25,28, Pya(4)26, Cha27,36, Lys30, Aib31]-PYY (23-36) (Isonicotinoyl-S[dHyp][Iva][4Pal][Cha][Iva]NK[Aib]TRQR[Cha]-NH2; SMILES CC[C@](C)(NC(=O)[C@H](CC1CCCCC1)NC(=O)[C@H](Cc1ccncc1)NC(=O)[C@](C)(CC)NC(=O)[C@H]1C[C@H](O)CN1C(=O)[C@H](CO)NC(=O)c1ccncc1)C(=O)N[C@@H](CC(N)=O)C(=O)N[C@@H](CCCCN)C(=O)NC(C)(C)C(=O)N[C@H](C(=O)N[C@@H](CCCNC(=N)N)C(=O)N[C@@H](CCC(N)=O)C(=O)N[C@@H](CCCNC(=N)N)C(=O)N[C@@H](CC1CCCCC1)C(N)=O)[C@@H](C)O) [compound No. 334] | 1.3 | 1.6 | 14%
Tetrahydro-2H-pyran-4-yl-carbamoyl-[D-Pro24, Pya(4)26, Cha27,36, Aib28,31, Lys30]-PYY(23-36) (X5-S[dP]R[4Pal][Cha][Aib]NK[Aib]TRQR[Cha]-NH2; ends and bridges not checked) [compound No. 270] | 0.52 | 0.61 | 28%

Further lines, with some results ahead:

RBA IC50 Ratio (human Y2 receptor [1]) | GBA EC50 Ratio (human Y2 receptor [2]) | Substance | food intake suppression rate (%) (male C57EL/6J mice)
1.2 | 1.5 | Ac-[D-Pro24, Ala(4Pip)26, Cha27,36, Aib28,31, Lys30]-PYY(23-36) (Ac-S[dP]R[Ala(piperidin-4-yl)][Cha][Aib]NK[Aib]TRQR[Cha]-NH2; SMILES CC(=O)N[C@@H](CO)C(=O)N1CCC[C@@H]1C(=O)N[C@@H](CCCNC(=N)N)C(=O)N[C@@H](CC1CCNCC1)C(=O)N[C@@H](CC1CCCCC1)C(=O)NC(C)(C)C(=O)N[C@@H](CC(N)=O)C(=O)N[C@@H](CCCCN)C(=O)NC(C)(C)C(=O)N[C@H](C(=O)N[C@@H](CCCNC(=N)N)C(=O)N[C@@H](CCC(N)=O)C(=O)N[C@@H](CCCNC(=N)N)C(=O)N[C@@H](CC1CCCCC1)C(N)=O)[C@@H](C)O) [compound No. 310] | 12%
1.3 | 0.92 | 4-Imidazolecarbonyl-[D-Hyp24, Iva25, Pya(4)26, Cha27,36, Aib28,31, Lys30]-PYY(23-36) (Imidazole4carbonyl-S[dHyp][Iva][4Pal][Cha][Aib]NK[Aib]TRQR[Cha]-NH2; SMILES CC[C@](C)(NC(=O)[C@H]1C[C@H](O)CN1C(=O)[C@H](CO)NC(=O)c1cnc[nH]1)C(=O)N[C@@H](Cc1ccncc1)C(=O)N[C@@H](CC1CCCCC1)C(=O)NC(C)(C)C(=O)N[C@@H](CC(N)=O)C(=O)N[C@@H](CCCCN)C(=O)NC(C)(C)C(=O)N[C@H](C(=O)N[C@@H](CCCNC(=N)N)C(=O)N[C@@H](CCC(N)=O)C(=O)N[C@@H](CCCNC(=N)N)C(=O)N[C@@H](CC1CCCCC1)C(N)=O)[C@@H](C)O) [compound No. 299] | 46%
0.65 | 1.0 | Ac-[D-Pro24, Iva25, Pya(4)26, Cha27,36, Aib28,31, Har30]-PYY(23-36) (Ac-S[dP][Iva][4Pal][Cha][Aib]N[hArg][Aib]TRQR[Cha]-NH2; SMILES CC[C@](C)(NC(=O)[C@H]1CCCN1C(=O)[C@H](CO)NC(C)=O)C(=O)N[C@@H](Cc1ccncc1)C(=O)N[C@@H](CC1CCCCC1)C(=O)NC(C)(C)C(=O)N[C@@H](CC(N)=O)C(=O)N[C@@H](CCCCNC(=N)N)C(=O)NC(C)(C)C(=O)N[C@H](C(=O)N[C@@H](CCCNC(=N)N)C(=O)N[C@@H](CCC(N)=O)C(=O)N[C@@H](CCCNC(=N)N)C(=O)N[C@@H](CC1CCCCC1)C(N)=O)[C@@H](C)O) [compound No. 317] | 49%
0.36 | 0.67 | Ac-[D-Pro24, Pya(4)26, Cha27,36, Iva28, Lys30, D-Iva31]-PYY(23-36) (Ac-S[dP]R[4Pal][Cha][Iva]NK[dIva]TRQR[Cha]-NH2; SMILES CC[C@@](C)(NC(=O)[C@H](CCCCN)NC(=O)[C@H](CC(N)=O)NC(=O)[C@](C)(CC)NC(=O)[C@H](CC1CCCCC1)NC(=O)[C@H](Cc1ccncc1)NC(=O)[C@H](CCCNC(=N)N)NC(=O)[C@H]1CCCN1C(=O)[C@H](CO)NC(C)=O)C(=O)N[C@H](C(=O)N[C@@H](CCCNC(=N)N)C(=O)N[C@@H](CCC(N)=O)C(=O)N[C@@H](CCCNC(=N)N)C(=O)N[C@@H](CC1CCCCC1)C(N)=O)[C@@H](C)O) [compound No. 249] | 39%
0.65 | 1.0 | 4-Imidazolecarbonyl-[D-Hyp24, Iva25, Pya(4)26, Cha27,36, αMePhe28, Lys30, Aib31]-PYY(23-36) (Imidazole4carbonyl-S[dHyp][Iva][4Pal][Cha][αMeF]NK[Aib]TRQR[Cha]-NH2; SMILES CC[C@](C)(NC(=O)[C@H]1C[C@H](O)CN1C(=O)[C@H](CO)NC(=O)c1cnc[nH]1)C(=O)N[C@@H](Cc1ccncc1)C(=O)N[C@@H](CC1CCCCC1)C(=O)N[C@@](C)(Cc1ccccc1)C(=O)N[C@@H](CC(N)=O)C(=O)N[C@@H](CCCCN)C(=O)NC(C)(C)C(=O)N[C@H](C(=O)N[C@@H](CCCNC(=N)N)C(=O)N[C@@H](CCC(N)=O)C(=O)N[C@@H](CCCNC(=N)N)C(=O)N[C@@H](CC1CCCCC1)C(N)=O)[C@@H](C)O) [compound No. 343] | 15%
0.48 | 0.86 | Ac-[Glu23, D-Pro24, Pya(4)26, Cha27,36, Leu(Me)28, Lys30, Aib31]-PYY(23-36) (Ac-E[dP]R[4Pal][Cha][tBuAla]NK[Aib]TRQR[Cha]-NH2; SMILES CC(=O)N[C@@H](CCC(=O)O)C(=O)N1CCC[C@@H]1C(=O)N[C@@H](CCCNC(=N)N)C(=O)N[C@@H](Cc1ccncc1)C(=O)N[C@@H](CC1CCCCC1)C(=O)N[C@@H](CC(C)(C)C)C(=O)N[C@@H](CC(N)=O)C(=O)N[C@@H](CCCCN)C(=O)NC(C)(C)C(=O)N[C@H](C(=O)N[C@@H](CCCNC(=N)N)C(=O)N[C@@H](CCC(N)=O)C(=O)N[C@@H](CCCNC(=N)N)C(=O)N[C@@H](CC1CCCCC1)C(N)=O)[C@@H](C)O) [compound No. 169] | 55%
